Residue numbers refer to the chain shown, from its start.
T1: human GIP receptor (human, UniProt P48546 22-466)
T1 sequence (looked up): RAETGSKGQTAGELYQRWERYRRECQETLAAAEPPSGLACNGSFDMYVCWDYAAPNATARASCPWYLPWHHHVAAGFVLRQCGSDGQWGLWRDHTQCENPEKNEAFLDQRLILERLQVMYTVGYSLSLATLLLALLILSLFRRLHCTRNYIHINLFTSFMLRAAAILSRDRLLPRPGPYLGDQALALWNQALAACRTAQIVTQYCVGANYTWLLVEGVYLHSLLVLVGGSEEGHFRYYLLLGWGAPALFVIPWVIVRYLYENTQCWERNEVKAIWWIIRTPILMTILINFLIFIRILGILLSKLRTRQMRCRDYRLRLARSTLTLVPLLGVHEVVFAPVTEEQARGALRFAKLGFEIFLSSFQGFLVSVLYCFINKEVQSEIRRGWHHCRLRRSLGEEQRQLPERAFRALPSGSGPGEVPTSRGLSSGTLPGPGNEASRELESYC

T2: human GIP receptor (human) (UniProt P48546)
T2 sequence (looked up): T1 sequence (looked up)

B1: Example 419 (peptide)
peptide: YXEGTXTSDXXIXLDXKAQXTFIXXLIKGGPSSGAPPPS
modifications: Y-Aib-EGT-αMeF(2F)-TSD-4Pal-Aib-I-αMeL-LD-Orn-K((2-[2-(2-Amino-ethoxy)-ethoxy]-acetyl)2-(γ-Glu)-CO-(CH2)10-CH3)AQ-Aib-TFI-(D-Glu)-αMeY-LIK((2-[2-(2-Amino-ethoxy)-ethoxy]-acetyl)2-(γ-Glu)-CO-(CH2)10-CH3)GGPSSGAPPPS-NH2
B2: Example 422 (peptide)
peptide: B1 peptide with T21K, K28E
modifications: Y-Aib-EGT-αMeF(2F)-TSD-4Pal-Aib-I-αMeL-LD-Orn-K((2-[2-(2-Amino-ethoxy)-ethoxy]-acetyl)3-(γ-Glu)-CO-(CH2)10-CH3)AQ-Aib-K((2-[2-(2-Amino-ethoxy)-ethoxy]-acetyl)3-(γ-Glu)-CO-(CH2)10-CH3)FI-(D-Glu)-αMeY-LIEGGPSSGAPPPS-NH2
B3: Example 426 (peptide)
peptide: B1 peptide with T21K, K28E
modifications: Y-Aib-EGT-αMeF(2F)-TSD-4Pal-Aib-I-αMeL-LD-Orn-K((2-[2-(2-Amino-ethoxy)-ethoxy]-acetyl)-(γ-Glu)-CO-(CH2)10-CH3)AQ-Aib-K((2-[2-(2-Amino-ethoxy)-ethoxy]-acetyl)-(γ-Glu)-CO-(CH2)10-CH3)FI-(D-Glu)-αMeY-LIEGGPSSGAPPPS-NH2
B4: Example 421 (peptide)
peptide: B1 peptide with X10K, T21E, K28E
modifications: Y-Aib-EGT-αMeF(2F)-TSDK((2-[2-(2-Amino-ethoxy)-ethoxy]-acetyl)3-(γ-Glu)-CO-(CH2)10-CH3)-Aib-I-αMeL-LD-Orn-K((2-[2-(2-Amino-ethoxy)-ethoxy]-acetyl)3-(γ-Glu)-CO-(CH2)10-CH3)AQ-Aib-EFI-(D-Glu)-αMeY-LIEGGPSSGAPPPS-NH2
B5: Example 430 (peptide)
peptide: B1 peptide with T21K, F22X, K28E
modifications: not fully specified; Y-Aib-EGT-αMeF(2F)-TSD-4Pal-Aib-I-αMeL-LD-Orn-K((2-[2-(2-Amino-ethoxy)-ethoxy]-acetyl)2-(γ Glu)-CO-(CH2)10H3)AQ-Aib-K((2-[2-(2-Amino-ethoxy)-ethoxy]-acetyl)2-(γGlu)-CO-(CH2)10C3)-αMeFI-(D-Glu)-αMeY-LIEGGPSSGAPPPS-NH2
B6: Example 429 (peptide)
peptide: B1 peptide with X10K, T21E, F22X, K28E
modifications: Y-Aib-EGT-αMeF(2F)-TSDK((2-[2-(2-Amino-ethoxy)-ethoxy]-acetyl)2-(γ-Glu)-CO-(CH2)10-CH3)-Aib-I-αMeL-LD-Orn-K((2-[2-(2-Amino-ethoxy)-ethoxy]-acetyl)2-(γ-Glu)-CO-(CH2)10-CH3)AQ-Aib-E-αMeF-I-(D-Glu)-αMeY-LIEGGPSSGAPPPS-NH2
B7: Example 420 (peptide)
peptide: YXEGTXTSDXXIXLDXKAQXXFIXXLIEGGPSSGAPPPSK
modifications: Y-Aib-EGT-αMeF(2F)-TSD-4Pal-Aib-I-αMeL-LD-Orn-K((2-[2-(2-Amino-ethoxy)-ethoxy]-acetyl)2-(γ-Glu)-CO-(CH2)10-CH3)AQ-Aib-4Pal-FI-(D-Glu)-αMeY-LIEGGPSSGAPPPSK((2-[2-(2-Amino-ethoxy)-ethoxyl-acetyl)2-(γ-Glu)-CO-(CH2)10-CH3)-NH2
B8: Example 431 (peptide)
peptide: B7 peptide with X21E, F22X
modifications: not fully specified; Y-Aib-EGT-αMeF(2F)-TSD-4Pal-Aib-I-αMeL-LD-Orn-K((2-[2-(2-Amino-ethoxy)-ethoxy]-acetyl)2-(γ Glu)-CO-(CH2)10C3)AQ-Aib-E-αMeF-I-(D-Glu)-αMeY-LIEGGPSSGAPPPSK((2-[2-(2-Amino-ethoxy)-ethoxy]-acetyl)2-(γ-Glu)-CO-(CH2)10-CH3)-NH2
B9: Example 428 (peptide)
peptide: B7 peptide with X21E
modifications: Y-Aib-EGT-αMeF(2F)-TSD-4Pal-Aib-I-αMeL-LD-Orn-K((2-[2-(2-Amino-ethoxy)-ethoxy]-acetyl)-(γ-Glu)-CO-(CH2)10-CH3)AQ-Aib-EFI-(D-Glu)-αMeY-LIEGGPSSGAPPPSK((2-[2-(2-Amino-ethoxy)-ethoxy]-acetyl)-(γ-Glu)-CO-(CH2)10-CH3)-NH2
B10: Example 424 (peptide)
peptide: B7 peptide with X21E
modifications: Y-Aib-EGT-αMeF(2F)-TSD-4Pal-Aib-I-αMeL-LD-Orn-K((2-[2-(2-Amino-ethoxy)-ethoxy]-acetyl)3-(γ-Glu)-CO-(CH2)10-CH3)AQ-Aib-EFI-(D-Glu)-αMeY-LIEGGPSSGAPPPSK((2-[2-(2-Amino-ethoxy)-ethoxy]-acetyl)3-(γ-Glu)-CO-(CH2)10-CH3)-NH2

What follows are binders tested against human glucagon receptor (human, UniProt P47871 26-477) (assay: cell-based or functional assay).
human glucagon receptor, sequence (P47871 26-477): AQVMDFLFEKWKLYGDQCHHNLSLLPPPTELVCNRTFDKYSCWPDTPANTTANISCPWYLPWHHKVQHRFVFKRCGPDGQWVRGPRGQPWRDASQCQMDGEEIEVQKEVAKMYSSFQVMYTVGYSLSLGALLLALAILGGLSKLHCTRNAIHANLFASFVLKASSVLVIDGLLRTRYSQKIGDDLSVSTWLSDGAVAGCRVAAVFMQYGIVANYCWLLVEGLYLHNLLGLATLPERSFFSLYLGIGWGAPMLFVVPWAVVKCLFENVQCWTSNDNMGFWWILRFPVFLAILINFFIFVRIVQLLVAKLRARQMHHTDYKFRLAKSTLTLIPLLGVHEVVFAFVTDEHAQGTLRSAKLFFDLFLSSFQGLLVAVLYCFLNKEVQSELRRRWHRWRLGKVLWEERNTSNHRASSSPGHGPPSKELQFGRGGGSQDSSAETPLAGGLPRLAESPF
With B1 the “cAMP EC50 (1.0% HSA)” value was > 9950 nM.
B2 was tested, and the “cAMP EC50 (1.0% HSA)” value was > 9950 nM.
B3 was tested, and the “cAMP EC50 (1.0% HSA)” value was > 9950 nM.
B4 was tested, and the “cAMP EC50 (1.0% HSA)” value was > 9950 nM.
B5 was tested, and the “cAMP EC50 (1.0% HSA)” value was > 9950 nM.
For B6, the “cAMP EC50 (1.0% HSA)” value was > 9950 nM.
In the case of B7, the “cAMP EC50 (1.0% HSA)” value is reported as > 9950 nM.
With B8 the “cAMP EC50 (1.0% HSA)” value was > 9950 nM.
B9 was tested, and the “cAMP EC50 (1.0% HSA)” value was > 9950 nM.
For B10, the “cAMP EC50 (1.0% HSA)” value was > 9950 nM.

These binders were tested against T1, human GIP receptor (assay: cell-based or functional assay).
With B1 the “cAMP EC50 (1.0% HSA)” value was 0.44 nM.
With B2 the “cAMP EC50 (1.0% HSA)” value was 0.199 nM and the “cAMP Emax (1.0% HSA)” value was 97.5%.
B3 was tested, and the “cAMP EC50 (1.0% HSA)” value was 3.88 nM and the “cAMP Emax (1.0% HSA)” value was 91.2%.
For B4, the “cAMP EC50 (1.0% HSA)” value was 0.164 nM and the “cAMP Emax (1.0% HSA)” value was 98%.
In the case of B5, the “cAMP EC50 (1.0% HSA)” value is reported as 1.09 nM and the “cAMP Emax (1.0% HSA)” value is reported as 91.5%.
With B6 the “cAMP EC50 (1.0% HSA)” value was 1.03 nM and the “cAMP Emax (1.0% HSA)” value was 93.3%.
In the case of B7, the “cAMP EC50 (1.0% HSA)” value is reported as 0.351 nM.
In the case of B8, the “cAMP EC50 (1.0% HSA)” value is reported as 0.645 nM and the “cAMP Emax (1.0% HSA)” value is reported as 98%.
In the case of B9, the “cAMP EC50 (1.0% HSA)” value is reported as 0.748 nM.
B10 was tested, and the “cAMP EC50 (1.0% HSA)” value was 0.159 nM.

The binders below were run against human GLP-1 receptor (human, UniProt P43220 24-463) (assay: cell-based or functional assay).
In the case of B1, the “cAMP EC50 (1.0% HSA)” value is reported as 7.19 nM and the “cAMP Emax (1.0% HSA)” value is reported as 97.3%.
In the case of B2, the “cAMP EC50 (1.0% HSA)” value is reported as 3.84 nM.
In the case of B3, the “cAMP EC50 (1.0% HSA)” value is reported as 29.7 nM.
For B4, the “cAMP EC50 (1.0% HSA)” value was 2.01 nM.
With B5 the “cAMP EC50 (1.0% HSA)” value was 26.8 nM and the “cAMP Emax (1.0% HSA)” value was 88.5%.
With B6 the “cAMP EC50 (1.0% HSA)” value was 17.3 nM.
B7 was tested, and the “cAMP EC50 (1.0% HSA)” value was 10 nM and the “cAMP Emax (1.0% HSA)” value was 109%.
In the case of B8, the “cAMP EC50 (1.0% HSA)” value is reported as 17.5 nM and the “cAMP Emax (1.0% HSA)” value is reported as 91.6%.
In the case of B9, the “cAMP EC50 (1.0% HSA)” value is reported as 10.2 nM.
For B10, the “cAMP EC50 (1.0% HSA)” value was 3.07 nM.

The binders below were run against hGLP-1R (Homo sapiens, UniProt P43220) (assay: cell-based or functional assay).
For B1, the cAMP EC50 was 0.132 nM and the cAMP Emax was 113%.
Work on B2 yielded a cAMP EC50 of 0.0729 nM and a cAMP Emax of 106%.
For B3, the cAMP EC50 was 0.206 nM and the cAMP Emax was 97.2%.
B4 gave a cAMP EC50 of 0.057 nM and a cAMP Emax of 101%.
Work on B5 yielded a cAMP EC50 of 0.342 nM and a cAMP Emax of 93.1%.
Work on B6 yielded a cAMP EC50 of 0.116 nM and a cAMP Emax of 116%.
For B7, the cAMP EC50 was 0.123 nM and the cAMP Emax was 99.7%.
B8 was tested, and the cAMP EC50 was 0.134 nM and the cAMP Emax was 99.2%.
Work on B9 yielded a cAMP EC50 of 0.102 nM and a cAMP Emax of 106%.
Binder B10 has a cAMP EC50 of 0.0427 nM and a cAMP Emax of 102%.

Each binder was assayed against human glucagon receptor (human) (UniProt P47871) (assay: cell-based or functional assay).
With B1 the cAMP EC50 was > 9950 nM.
With B2 the cAMP EC50 was > 9950 nM.
In the case of B3, the cAMP EC50 is reported as > 9950 nM.
With B4 the cAMP EC50 was > 9950 nM.
For B5, the cAMP EC50 was > 9950 nM.
For B6, the cAMP EC50 was > 9950 nM.
In the case of B7, the cAMP EC50 is reported as > 9950 nM.
In the case of B8, the cAMP EC50 is reported as > 9950 nM.
For B9, the cAMP EC50 was > 9950 nM.
For B10, the cAMP EC50 was > 9950 nM.

These binders were tested against T2, human GIP receptor (human) (assay: cell-based or functional assay).
B1 showed a cAMP EC50 of 0.00958 nM and a cAMP Emax of 101%.
For B2, the cAMP EC50 was 0.00655 nM and the cAMP Emax was 104%.
B3 showed a cAMP EC50 of 0.0191 nM and a cAMP Emax of 93.3%.
B4 gave a cAMP EC50 of 0.00618 nM and a cAMP Emax of 100%.
With B5 the cAMP EC50 was 0.0175 nM and the cAMP Emax was 107%.
B6 was tested, and the cAMP EC50 was 0.00799 nM and the cAMP Emax was 108%.
Work on B7 yielded a cAMP EC50 of 0.00964 nM and a cAMP Emax of 101%.
B8 was tested, and the cAMP EC50 was 0.0097 nM and the cAMP Emax was 104%.
B9 gave a cAMP EC50 of 0.00797 nM and a cAMP Emax of 95.5%.
In the case of B10, the cAMP EC50 is reported as 0.00502 nM and the cAMP Emax is reported as 101%.

From US20230265151A1, “GIP/GLP1 CO-AGONIST COMPOUNDS” (priority 2020, published 2023)
